This data set deals with MS2 coat protein. Briefly: apparent KD of MS2 coat protein; designed switch direction (-1 OFF switch, 1 ON switch): -1; higher = weaker reporter binding. The essentials:
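Three titration conditions were used: no input, 200 uM small-molecule ligand, and an oligonucleotide input. In each, SNAP-549-labelled MS2 coat protein was raised from 0.7 or 1.5 nM, doubling, to 3 µM over designed RNA switches transcribed on Illumina chips by stalled E. coli RNA polymerase. Curve fits of normalised cluster fluorescence gave values whose per-design median over clusters is the apparent KD.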

[1] abbreviates: input ligand: microRNA oligo, concentration not stated.

Regarding “GCUGCACAUGUAGGAUAUCUGCACGUGUAGUGCAGAGAAGGACAUGAGGAUCACCCAUGUAGAUCAGCAGCAAUUAAUUUAAUU [ENG1/6-A2] (Eterna round: R96, puzzle: Exclusion NG 1)”, the “apparent KD of MS2 coat protein” value worked out at 150 nM (input ligand: FMN 200 uM), 273 nM under setting [1] and 242 nM (input ligand: none).

Consider “GAACUCGUGAAGGAUAUCCGUACCAAAGCGGCAGGAGAAGGUCACACAUGAGGAUCACCCAUGUGGUACCUCGU [Xeinbira] (Eterna round: R96, puzzle: Exclusion 6)”, for which the “apparent KD of MS2 coat protein” value under setting [1] worked out at 23.6 nM.

With “CUGCCGAGAGGAUAUACUAAGCGAAGAGCCUCAUAAAAGUUACAUGAGGAUCACCCAUGUAGAAGGCUUGGGAG [Eternabot (Original) Solution 38] (Eterna round: R97, puzzle: Exclusion 2)”, the “apparent KD of MS2 coat protein” value reads like this: (input ligand: FMN 200 uM) 104 nM; (input ligand: none) 54.4 nM.

Turning to “GUUGUGUAAGGAUAUGCCUGGCCGUGAGGCCAGAUUGAGUGGCAGAAGGUACAUGAGGAUCACCCAUGUACGGG [salish99_ex4_4_003] (Eterna round: R97, puzzle: Exclusion 4)”, the “apparent KD of MS2 coat protein” value was 145 nM (input ligand: FMN 200 uM) and 26.8 nM (input ligand: none).

In the case of “AAAGUCCUAGGAGGAUAUCACCUGCCUAGCACAUGAGAAGGCCUAGGAGACAUGAGGAUCACCCAUGUGUCCUUAGUCGAAAAU [Ensobedi] (Eterna round: R96, puzzle: Exclusion NG 1)”, the “apparent KD of MS2 coat protein” value (input ligand: FMN 200 uM) turned out to be 19.5 nM, the “apparent KD of MS2 coat protein” value under setting [1] was determined as 9.59 nM and the “apparent KD of MS2 coat protein” value (input ligand: none) came out at 13.2 nM.

With “AGUACUAACACGAAAGUGUUAGUACAAUAAGCUUGUGUUACAUGAGGAUCACCCAUGUCCUCAUAAGCUCGUCUUAG [Mat - Sensor v3 - Turn-off var 2 - D50] (puzzle: Sensor v3, turn-off variant 2)”, the “apparent KD of MS2 coat protein” value (Eterna round: R95, input ligand: FMN 200 uM) was 45.9 nM; the “apparent KD of MS2 coat protein” value (Eterna round: R95, input ligand: microRNA oligo, concentration not stated) is 351 nM; the “apparent KD of MS2 coat protein” value (Eterna round: R95, input ligand: none) was determined as 45.4 nM.

In the case of “AGCCCUGCAGGAUAUGCCCGGGAUAACAUGAGGAUCACCCAUGUGACCGAUUGUUAUUCUGCAGAAGGGCAUGGGA [JL-EX5-4.17 ViennaUCT mod] (Eterna round: R97, puzzle: Exclusion 5)”, the “apparent KD of MS2 coat protein” value is, setting by setting: (input ligand: FMN 200 uM) 228 nM; (input ligand: none) 235 nM.

Consider “AAUACAAGCUAUUGAUCCCACAUGAGGAUCACCCAUGUGCCUGGCCGUGAGACAAGGUUUACAAUAGCUCGUCUUAU [Sensor-V1 #46] (Eterna round: R97, puzzle: Sensor, turn-off variant 1)”, for which the “apparent KD of MS2 coat protein” value (input ligand: FMN 200 uM) turned out to be 46.1 nM and the “apparent KD of MS2 coat protein” value (input ligand: none) was 44.7 nM.

With “AACAGUCUAGAGGAUAUGUGGGAUUAAUAUCUUGCAGAAGGCUGGACAUGAGGAUCACCCAUGUAAAUACUACC [Omei Ex6 A15] (Eterna round: R97, puzzle: Exclusion 6)”, the “apparent KD of MS2 coat protein” value by setting is: (input ligand: FMN 200 uM) 80.8 nM; (input ligand: none) 32.9 nM.

As for “CGAUAAAGCUGAGGAUAUGAGGAGAGAGAGAGAUCAGAAGGCAGACAUGAGGAUCACCCAUGUGAGUUCUCGAAAUUAAAUAUU [Prohibition 48 - Jieux - Exclusion NG 1] (Eterna round: R96, puzzle: Exclusion NG 1)”, the “apparent KD of MS2 coat protein” value is 225 nM (input ligand: FMN 200 uM), 47 nM under setting [1] and 57.5 nM (input ligand: none).

Take “GCCGGAUAAGUGAGGAUAUACCUAUGGAUACAUAGGUAGAAGGCACAUGAGGAUCACCCAUGUACCUCUCCGGC [JL-BMX4-4.18 Eli mod] (Eterna round: R97, puzzle: Brourd's mod of Exclusion 4)”: the “apparent KD of MS2 coat protein” value was determined as 87.5 nM (input ligand: FMN 200 uM) and 14.8 nM (input ligand: none).

Turning to “CGUUGUAUAGGAUAUACAUGAGGAUCACCCAUGUGAAAUUAUAGUGAGGAAAUGAAAAGUAGAAGGGUAUGACA [Mod of Mat 7 - Jieux - Exclusion 3] (Eterna round: R97, puzzle: Exclusion 3)”, the “apparent KD of MS2 coat protein” value stood at 35.5 nM (input ligand: FMN 200 uM) and 45.3 nM (input ligand: none).

The record behind these values is the supplement of paper PMC9170038.
